For 167 variants, self-cleavage results are on record in the RNAGym collection of RNA variant scans (doi:10.7554/elife.80360).

B1: CPEB3 Ribozyme (parent)
chain: GGGGGCCACAGCAGAAGCGUUCACGUCGCGGCCCCUGUCAGAUUCUGGUGAAUCUGCGAAUUCUGCUGU

In the series the parent is B1. In words: self-cleavage, relative activity (ratio to wild type); higher = more cleavage; co-transcriptional.
With A42C C63U, the self-cleavage stood at 0.926. The value for C45G U67G was 1.01; that for A42U G47A was 0.957; that for U44G G50A was 1. Turning to U43A U67G, the self-cleavage amounted to 0.889.

Consider C45G U69G, for which the self-cleavage was determined as 1.05. For the variant U44A G50A, the self-cleavage came to 0.962. Regarding U43G C66G, the self-cleavage worked out at 0.484. The value for C45A G47U was 0.986; that for C45A G47A was 0.999; that for C45A G47C was 0.995. As for U44G C57U, the self-cleavage is 0.23. The value for U44G C57G was 0.335; that for U44G C57A was 0.327; that for U43G U46A was 0.959.

Regarding U44A A51C, the self-cleavage came out at 0.939. For U44A A51G, the self-cleavage was 0.936. For U43A U61G, the self-cleavage was 0.485.

U43A U61A: the self-cleavage worked out at 0.651. Regarding A42G C57G, the self-cleavage came to 0.276.

With A42G C57A, the self-cleavage was 0.306. With C45U C54G, the self-cleavage stood at 0.785.

Turning to C45U C54U, the self-cleavage stood at 1.01. With A42U U67C, the self-cleavage stood at 0.947. As to U43A U62C, the self-cleavage stood at 0.668. As for U44C U46G, the self-cleavage turned out to be 0.98. Consider U44A C54U, for which the self-cleavage worked out at 0.923.

With A42U U49A, the self-cleavage was 0.958. Regarding A42U G58U, the self-cleavage was 0.965.

On to A42U U55C, for which the self-cleavage was found to be 0.522. As for C45A C63G, the self-cleavage came out at 0.813. On to C45A C63U, for which the self-cleavage came out at 1.02. The value for U43G C63U was 0.751. For the variant U43G C63A, the self-cleavage is 0.436.

Consider U46A G68U, for which the self-cleavage turned out to be 0.988. With U44G C66A the figure was 0.733; with U43A A51C, 0.933. U43C G58C: the self-cleavage was determined as 0.936. Take A42U U46A: the self-cleavage came out at 1.03. For A42U U46G, the self-cleavage was determined as 1.01.

Regarding C45U G58C, the self-cleavage was 1.01. The value for C45U G58A was 0.972. Turning to C45U G58U, the self-cleavage stood at 1.01.

Regarding A42C G58U, the self-cleavage came out at 1.01. With A42C G58A the figure was 0.925; with A42G U69A, 1.01. As to U44G G56A, the self-cleavage turned out to be 0.822. On to U44G G56C, for which the self-cleavage was determined as 0.44. Turning to U44C U62A, the self-cleavage turned out to be 0.728. Consider U43C C54A, for which the self-cleavage worked out at 0.734.

As for A42U G48U, the self-cleavage was found to be 0.99. On to U46A C54U, for which the self-cleavage amounted to 0.973. As for A42C U64C, the self-cleavage came to 0.637. Regarding C45U U67G, the self-cleavage stood at 1.02. Take C45U U67A: the self-cleavage was 1.01. For C45G G68U, the self-cleavage came to 0.979.

For the variant C45A G50C, the self-cleavage worked out at 0.931.

For C45A G50U, the self-cleavage is 1.04. For the variant A42C G65C, the self-cleavage is 0.474. As for A42C G65U, the self-cleavage is 0.574.

Consider U44C U61A, for which the self-cleavage came out at 0.801. Take U44C U61G: the self-cleavage was found to be 0.49. For U43A G48C, the self-cleavage was determined as 0.912. For U46A C63A, the self-cleavage was determined as 0.908.

As to U46A C63G, the self-cleavage came to 0.838. U43C U49G: the self-cleavage is 0.949. With U43C U49A, the self-cleavage was 0.988. As to U43G C57U, the self-cleavage stood at 0.385. As to U43G C57G, the self-cleavage worked out at 0.308. With C45A U49G the figure was 1.01; with C45A U49A, 0.997; with C45A G65A, 0.814.

With A42C A60G, the self-cleavage was found to be 0.771.

As to U46A G56U, the self-cleavage came out at 0.941. Turning to U46A G56C, the self-cleavage was 0.858.

U46A U53A: the self-cleavage amounted to 0.989. Turning to C45A C54A, the self-cleavage was found to be 0.603. For the variant U44G U61A, the self-cleavage came out at 0.808. On to A42G G56U, for which the self-cleavage was determined as 0.567. U44A C66A: the self-cleavage is 0.758.

On to U43C A52G, for which the self-cleavage came out at 0.965. Take A42G A60U: the self-cleavage was found to be 0.329. The value for A42G A60C was 0.405. Consider A42U U53C, for which the self-cleavage was determined as 0.935. Take U43A C63U: the self-cleavage was 0.86. For C45U C57U, the self-cleavage was found to be 0.317. As to U44G U62A, the self-cleavage came to 0.908. U44G U62G: the self-cleavage is 0.777. Turning to C45G C66U, the self-cleavage amounted to 0.961. Take C45G C66A: the self-cleavage amounted to 0.767. In the case of U43G U53C, the self-cleavage was 0.874. Take U44A C45A: the self-cleavage is 0.886. Consider U46A, for which the self-cleavage came to 1. U44C G68U: the self-cleavage amounted to 0.987. In the case of A42C U61G, the self-cleavage was 0.518. As for U44A G56U, the self-cleavage amounted to 0.677.

For U43C G48A, the self-cleavage came to 1.02. With U43C U61G, the self-cleavage is 0.562. On to U43C U61C, for which the self-cleavage is 0.511. With U43C U61A the figure was 0.764; with C45U U61G, 0.897; with C45A G56A, 0.848. With C45U U62G, the self-cleavage amounted to 0.847.

As for C45U U62C, the self-cleavage amounted to 0.895.

C45G C63A: the self-cleavage was determined as 0.732. For C45G C63G, the self-cleavage was 0.798. For U44C G50A, the self-cleavage came out at 0.939.

On to U43G G47U, for which the self-cleavage turned out to be 0.999. Turning to U43G G47A, the self-cleavage was found to be 0.95.

As for A42G C54G, the self-cleavage came to 0.71.

As for A42G C54A, the self-cleavage came out at 0.708. Regarding U46A C57A, the self-cleavage came out at 0.434. The value for U44G U64A was 0.662; that for U44G C54A was 0.596; that for C45G U49A was 0.987. Consider U44G A59C, for which the self-cleavage is 0.629. The value for A42G U61C was 0.521. On to A42G U61A, for which the self-cleavage was found to be 0.693. Regarding U43C C57U, the self-cleavage stood at 0.394. For the variant C45G U62A, the self-cleavage amounted to 0.939.

As for A42C G47U, the self-cleavage is 0.958. As for A42C G47C, the self-cleavage was 0.977. With C45A U61C the figure was 0.697. For U43C U69C, the self-cleavage was determined as 1.07. As to U43C U69G, the self-cleavage was 1.03. Regarding A42C C66A, the self-cleavage amounted to 0.57. In the case of U43G U61A, the self-cleavage stood at 0.701. Take U43G U61G: the self-cleavage was 0.265.

As for A42G G47C, the self-cleavage came out at 0.941.

Take U43G G56U: the self-cleavage amounted to 0.385. The value for U44A U49C was 0.922; that for C45U G56A was 0.943. Take C45A G48A: the self-cleavage was 1.02. For the variant C45A A60U, the self-cleavage was found to be 0.424. The value for C45A A60G was 0.862; that for C45A A60C was 0.476; that for U44C A60C was 0.378. Turning to A42U A59U, the self-cleavage turned out to be 0.677.

As for A42U A59C, the self-cleavage is 0.546. U43C G68C: the self-cleavage was found to be 1.01. For U43C G68A, the self-cleavage was 1.03.

As for U46A G47C, the self-cleavage was 1.04. For the variant U44G G48U, the self-cleavage stood at 0.986. For U44G G48A, the self-cleavage came to 0.963.

On to A42G A52G, for which the self-cleavage stood at 0.825.

Turning to A42C U49C, the self-cleavage is 0.892. The value for U46A A52U was 0.981; that for U46A A52G was 1.03. Regarding U43G C45U, the self-cleavage stood at 1.02. U43C U53C: the self-cleavage was found to be 0.855. In the case of U43C U53G, the self-cleavage stood at 0.978.

A42G U44G: the self-cleavage was determined as 0.904. As to A42U U64C, the self-cleavage stood at 0.609. As for U44A A60G, the self-cleavage is 0.725. With C45U C63U, the self-cleavage turned out to be 1. In the case of C45U C63G, the self-cleavage was found to be 0.816. As to U44G C63G, the self-cleavage came to 0.588. Regarding U43G G68C, the self-cleavage stood at 0.902. With U44C U55G the figure was 0.372; with C45G G56U, 0.722; with C45G G56C, 0.469. Regarding C45U U49C, the self-cleavage is 0.986. With C45U U49G the figure was 1.01; with U43C A51U, 0.944. The value for U43C A51G was 0.964; that for U44A G47U was 1; that for U44A G47A was 1.01.
